Data on two molecules can be found in US10561709B2, “Methods and compositions of neuregulins for preventing, treating or delaying preserved ejection fraction cardiac failure” (Zensun (Shanghai) Science & Technology, Co., Ltd., priority 2014, dated 2020).

Test [1] relates to SHR hypertensive rats with heart failure. In words: Hemodynamic measurement in hypertensive heart failure rats. Type of test: in vivo, rat. The conditions noted are these: captopril 10 mg/kg intragastric 2 times a day; for MAP / −dp/dt: hypertensive heart failure rats, after 3 treatment cycles, rhNRG 6.5 ug/kg i.v. once a day 5 days on/2 days off. How it is done: (§1) The study is on the therapeutic effect of recombinant human neuregulin (rhNRG) in SHR hypertensive rats with heart failure. Methods: SHR hypertensive rat strains, normal feeding, monitoring changes of cardiac function during feeding. […] Hypertensive heart failure rats were randomly divided into negative control group, NRG treatment group and captopril treatment group. rhNRG was administered continuously for 5 days, withdrawing for 2 days in a treatment cycle, NRG group received 3 treatment cycles. At the end of the second and third treatment cycle, each group of rats was examined by echocardiography to determine the cardiac function changes. After the third treatment cycle, hemodynamics of the rats were detected.
(§2) The SHR hypertensive rat strains, normal feeding, and monitoring the cardiac function changes during the feeding.
After the model was successfully established, the rats were randomly divided into negative control group, NRG treatment group and captopril treatment group. RhNRG was administered intravenously, with a dose of 6.5 ug/kg, once a day, 5 days of continuous administration and 2 days of drug withdraw period as a treatment cycle. A total of 3 treatment cycles were administered. At the same time, the NRG group was given drinking water by intragastric administration two times a day. Captopril was administrated 10 mg/kg by intragastric administration, 2 times a day, continuous administration. NRG excipient was administrated by tail vein injection for 3 treatment cycles. The negative control group were given drinking water by intragastric administration and given NRG excipients by tail vein injection.
At the end of the third treatment cycle, the rats were anesthetized with 3% pentobarbital by intraperitoneal injection. Median incision was made in the neck, the left common carotid artery was isolated and intubated, and the arterial and left ventricular hemodynamic parameters were measured.

Test [2] shares this test system. As to the kind of experiment: Echocardiography examination in hypertensive heart failure rats. The conditions noted are these: rhNRG 6.5 ug/kg, after 2 cycles or 3 cycles of treatment. It is filed as in vivo, rat. The procedure: as §1, §2
After the model was successfully established, the rats were randomly divided into negative control group, NRG treatment group and captopril treatment group. RhNRG was administered intravenously, with a dose of 6.5 ug/kg, once a day, 5 days of continuous administration and 2 days of drug withdraw period as a treatment cycle. A total of 3 treatment cycles were administered. At the same time, the NRG group was given drinking water by intragastric administration two times a day. […]

The subject of test [3] is patients with heart failure with preserved ejection fraction. As to the kind of experiment: Mitral valve flow spectrum of two-dimensional echocardiography, preliminary clinical trial. Type of test: in vivo, human. How it is done: To evaluate the effect of recombinant human neuregulin on cardiac function of patients with heart failure with preserved ejection fraction, the preliminary clinical trial was carried out in the Sixth People's Hospital Affiliated to Shanghai Jiao Tong University, which comprises 2 patients in the placebo group and 2 patients in the experiment group.
1.1 left ventricular ejection fraction (LVEF) ≥50% (two-dimensional echocardiography diagnosis);
1.2 New York heart function (NYHA) II or III level;
4. Data collection: Mitral valve flow spectrum of two-dimensional echocardiography was detected during the screening period, 11-13 d and 30 d.

Setting [4] is: patient 8003, 0.3 ug/kg/day i.v. drip 10 hours a day for 10 days, 11-13 d.
Where [5] appears, read: patient 8003, 0.3 ug/kg/day i.v. drip 10 hours a day for 10 days, 30 d.
The mark [6] stands for this setting: patient 8003, 0.3 ug/kg/day i.v. drip 10 hours a day for 10 days, screening period (before treatment).
[7] abbreviates: patient 8004, 0.3 ug/kg/day i.v. drip 10 hours a day for 10 days, 11-13 d.
Where [8] appears, read: patient 8004, 0.3 ug/kg/day i.v. drip 10 hours a day for 10 days, 30 d.
[9] abbreviates: patient 8004, 0.3 ug/kg/day i.v. drip 10 hours a day for 10 days, screening period (before treatment).

On to `C[C@H](CS)C(=O)N1CCC[C@H]1C(=O)O` [captopril, reference compound], for which, in test [1], the MAP was determined as 139.9 ± 24.8 and the “−dp/dt” value is on record as −5441.2 ± 1007.3. Also, the blood pressure in test [1] (hypertensive rats, vs 216.5±23.2 and 228.0±26.0 in the other groups (p=0.029, p=0.017)) was 174.5±33.0.

B1: NRG: Recombinant human neuregulin, Neucardin™, 61 amino acids, produced by Shanghai Zensun Sci & Tech Co., Ltd. (protein)
chain: SHLVKCAEKEKTFCVNGGECFMVKDLSNPSRYLCKCPNEFTGDRCQNYVMASFYKAEELYQ
modifications: homo sapiens
On to B1, for which the MAP in test [1] was found to be 182.5 ± 18.8. Also, in test [1], the “−dp/dt” value was −7467.6±715.8. In test [2], the “left ventricular end diastolic and end systolic volume” value was “prevent further left ventricular end diastolic and end systolic volume enlargement”. Also, the DT in test [3] (setting [4]) stood at 203.7 ms; in test [3] (setting [5]), 179.5 ms; in test [3] (setting [6]), 229.08 ms; in test [3] (setting [7]) it was 256.15 ms; in test [3] (setting [8]) it was 255.14 ms; in test [3] (setting [9]), 262.28 ms. Besides, the IVRT in test [3] (setting [4]) came to 340.1 ms; in test [3] (setting [5]), 345 ms; in test [3] (setting [6]), 374.31 ms; in test [3] (setting [7]), 609.28 ms; in test [3] (setting [8]), 499.08 ms; in test [3] (setting [9]), 621.07 ms. In test [3] (patients administered with NRG 0.3 ug/kg/day, versus placebo patients whose values gradually increased), the “IVRT and DT values, change over the trial” value is listed as “significantly decreased”.
